Test results published in patent publication US20260167699A1 (Chugai, published 2026).
Changes are numbered by the printed parent chain.

T1: FcγRIIa(R) (human, UniProt P12318 34-217)
T1 construct: extracellular domain; also called 2aR
T1 sequence: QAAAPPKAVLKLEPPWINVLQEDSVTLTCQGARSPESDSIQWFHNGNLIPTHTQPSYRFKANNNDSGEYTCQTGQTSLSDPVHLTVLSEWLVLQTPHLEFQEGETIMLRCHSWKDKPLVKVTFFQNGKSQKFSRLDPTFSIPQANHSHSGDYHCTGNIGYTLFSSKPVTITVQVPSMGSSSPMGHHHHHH

T2: FcγRIIb (human, UniProt P31994 43-217)
T2 construct: extracellular domain; also called 2b
T2 sequence: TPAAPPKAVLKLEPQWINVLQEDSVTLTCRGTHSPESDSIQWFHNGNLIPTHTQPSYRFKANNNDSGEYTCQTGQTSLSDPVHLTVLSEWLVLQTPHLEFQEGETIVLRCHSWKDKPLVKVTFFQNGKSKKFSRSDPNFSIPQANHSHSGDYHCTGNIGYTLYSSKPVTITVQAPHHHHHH

T3: FcγRIIa(H) (human, UniProt P12318 34-217)
T3 construct: extracellular domain; also called 2aH
T3 sequence: T1 sequence with R134H

B1: GpH7-A5/GpH7-B3 variant A330_10E/GpL16-k0 (antibody, human IgG1, kappa)
heavy 1: not shown
heavy 2: not shown
light: DIVMTQSPLSLPVTPGEPASISCQASESLVHSNRNTYLHWYLQKPGQSPQLLIYKVSNRFSGVPDRFSGSGSGTDFTLKISRVEAEDVGVYYCSQNTHVPPTFGQGTKVEIERTVAAPSVFIFPPSDEQLKSGTASVVCLLNNFYPREAKVQWKVDNALQSGNSQESVTEQDSKDSTYSLSSTLTLSKADYEKHKVYACEVTHQGLSSPVTKSFNRGEC
notes: He Ab: heterodimerized IgG1, one H chain mutated
B2: GpH7-A5/GpH7-B3 variant A330_19Q/GpL16-k0 (antibody, human IgG1, kappa)
heavy 1: not shown
heavy 2: not shown
light: B1 light
notes: as for B1
B3: GpH7-A5/GpH7-B3 variant K326_05P/GpL16-k0 (antibody, human IgG1, kappa)
heavy 1: not shown
heavy 2: not shown
light: B1 light
notes: as for B1
B4: GpH7-A5/GpH7-B3 variant A330_20W/GpL16-k0 (antibody, human IgG1, kappa)
heavy 1: not shown
heavy 2: not shown
light: B1 light
notes: as for B1
B5: GpH7-A5/GpH7-B3 variant K326_01G/GpL16-k0 (antibody, human IgG1, kappa)
heavy 1: not shown
heavy 2: not shown
light: B1 light
notes: as for B1
B6: GpH7-A5/GpH7-B3 variant K326_16H/GpL16-k0 (antibody, human IgG1, kappa)
heavy 1: not shown
heavy 2: not shown
light: B1 light
notes: as for B1
B7: GpH7-A5/GpH7-B3 variant L328_03V/GpL16-k0 (antibody, human IgG1, kappa)
heavy 1: not shown
heavy 2: not shown
light: B1 light
notes: as for B1
B8: GpH7-A5/GpH7-B3 variant K326_19Q/GpL16-k0 (antibody, human IgG1, kappa)
heavy 1: not shown
heavy 2: not shown
light: B1 light
notes: as for B1
B9: GpH7-A5/GpH7-B3 variant K326_04F/GpL16-k0 (antibody, human IgG1, kappa)
heavy 1: not shown
heavy 2: not shown
light: B1 light
notes: as for B1
B10: GpH7-A5/GpH7-B3 variant L328_06M/GpL16-k0 (antibody, human IgG1, kappa)
heavy 1: not shown
heavy 2: not shown
light: B1 light
notes: as for B1
B11: GpH7-A5/GpH7-B3 variant A330_16H/GpL16-k0 (antibody, human IgG1, kappa)
heavy 1: not shown
heavy 2: not shown
light: B1 light
notes: as for B1
B12: GpH7-A5/GpH7-B3 variant K326_14T/GpL16-k0 (antibody, human IgG1, kappa)
heavy 1: not shown
heavy 2: not shown
light: B1 light
notes: as for B1
B13: GpH7-A5/GpH7-B3 variant K326_20W/GpL16-k0 (antibody, human IgG1, kappa)
heavy 1: not shown
heavy 2: not shown
light: B1 light
notes: as for B1
B14: GpH7-A5/GpH7-B3 variant K326_07I/GpL16-k0 (antibody, human IgG1, kappa)
heavy 1: not shown
heavy 2: not shown
light: B1 light
notes: as for B1
B15: GpH7-A5/GpH7-B3 variant L328_04F/GpL16-k0 (antibody, human IgG1, kappa)
heavy 1: not shown
heavy 2: not shown
light: B1 light
notes: as for B1
B16: GpH7-A5/GpH7-B3 variant K326_09D/GpL16-k0 (antibody, human IgG1, kappa)
heavy 1: not shown
heavy 2: not shown
light: B1 light
notes: as for B1
B17: GpH7-A5/GpH7-B3 variant L328_02A/GpL16-k0 (antibody, human IgG1, kappa)
heavy 1: not shown
heavy 2: not shown
light: B1 light
notes: as for B1
B18: GpH7-A5/GpH7-B3 variant K326_15Y/GpL16-k0 (antibody, human IgG1, kappa)
heavy 1: not shown
heavy 2: not shown
light: B1 light
notes: as for B1
B19: GpH7-A5/GpH7-B3 variant K326_03V/GpL16-k0 (antibody, human IgG1, kappa)
heavy 1: not shown
heavy 2: not shown
light: B1 light
notes: as for B1
B20: GpH7-A5/GpH7-B3 variant K326_18N/GpL16-k0 (antibody, human IgG1, kappa)
heavy 1: not shown
heavy 2: not shown
light: B1 light
notes: as for B1
B21: GpH7-A5/GpH7-B3 variant K326_13S/GpL16-k0 (antibody, human IgG1, kappa)
heavy 1: not shown
heavy 2: not shown
light: B1 light
notes: as for B1
B22: GpH7-A5/GpH7-B3 variant K326_08L/GpL16-k0 (antibody, human IgG1, kappa)
heavy 1: not shown
heavy 2: not shown
light: B1 light
notes: as for B1
B23: GpH7-A5/GpH7-B3 variant A330_18N/GpL16-k0 (antibody, human IgG1, kappa)
heavy 1: not shown
heavy 2: not shown
light: B1 light
notes: as for B1
B24: GpH7-A5/GpH7-B3 variant K326_12R/GpL16-k0 (antibody, human IgG1, kappa)
heavy 1: not shown
heavy 2: not shown
light: B1 light
notes: as for B1
B25: GpH7-A5/GpH7-B3 variant L328_07I/GpL16-k0 (antibody, human IgG1, kappa)
heavy 1: not shown
heavy 2: not shown
light: B1 light
notes: as for B1
B26: GpH7-A5/GpH7-B3 variant K326_10E/GpL16-k0 (antibody, human IgG1, kappa)
heavy 1: not shown
heavy 2: not shown
light: B1 light
notes: as for B1
B27: GpH7-A5/GpH7-B3 variant A330_14T/GpL16-k0 (antibody, human IgG1, kappa)
heavy 1: not shown
heavy 2: not shown
light: B1 light
notes: as for B1
B28: GpH7-A5/GpH7-B3 variant K326_02A/GpL16-k0 (antibody, human IgG1, kappa)
heavy 1: not shown
heavy 2: not shown
light: B1 light
notes: as for B1
B29: GpH7-A5/GpH7-B3 variant K326_06M/GpL16-k0 (antibody, human IgG1, kappa)
heavy 1: not shown
heavy 2: not shown
light: B1 light
notes: as for B1

Molecular target: T1, FcγRIIa(R)
Test: SPR, relative to GpH7-A5/GpH7-B3/GpL16-k0 =100

| He/Con 2aR [%] | Binder |
| --- | --- |
| 97.2 | B1 |
| 117 | B2 |
| 118 | B3 |
| 97.6 | B4 |
| 108 | B5 |
| 115 | B6 |
| 150 | B7 |
| 124 | B8 |
| 129 | B9 |
| 148 | B10 |
| 111 | B11 |
| 128 | B12 |
| 125 | B13 |
| 141 | B14 |
| 177 | B15 |
| 142 | B16 |
| 150 | B17 |
| 131 | B18 |
| 135 | B19 |
| 110 | B20 |
| 119 | B21 |
| 131 | B22 |
| 91 | B23 |
| 98.6 | B24 |
| 160 | B25 |
| 142 | B26 |
| 107 | B27 |
| 125 | B28 |
| 132 | B29 |

Molecular target: T2, FcγRIIb
Test: SPR, relative to GpH7-A5/GpH7-B3/GpL16-k0 =100

| He/Con 2b [%] | Binder |
| --- | --- |
| 79.2 | B1 |
| 103 | B2 |
| 141 | B3 |
| 86 | B4 |
| 119 | B5 |
| 133 | B6 |
| 157 | B7 |
| 156 | B8 |
| 174 | B9 |
| 176 | B10 |
| 99 | B11 |
| 168 | B12 |
| 166 | B13 |
| 223 | B14 |
| 273 | B15 |
| 216 | B16 |
| 180 | B17 |
| 179 | B18 |
| 196 | B19 |
| 118 | B20 |
| 139 | B21 |
| 198 | B22 |
| 71.9 | B23 |
| 100 | B24 |
| 200 | B25 |
| 224 | B26 |
| 87.9 | B27 |
| 156 | B28 |
| 185 | B29 |

Molecular target: T4, FcγRIa (human, UniProt P12314 16-292)
T4 construct: extracellular domain; also called 1a
Test: SPR, relative to GpH7-A5/GpH7-B3/GpL16-k0 =100

T4 sequence (P12314 other isoform, or with tags, fused parts or gaps): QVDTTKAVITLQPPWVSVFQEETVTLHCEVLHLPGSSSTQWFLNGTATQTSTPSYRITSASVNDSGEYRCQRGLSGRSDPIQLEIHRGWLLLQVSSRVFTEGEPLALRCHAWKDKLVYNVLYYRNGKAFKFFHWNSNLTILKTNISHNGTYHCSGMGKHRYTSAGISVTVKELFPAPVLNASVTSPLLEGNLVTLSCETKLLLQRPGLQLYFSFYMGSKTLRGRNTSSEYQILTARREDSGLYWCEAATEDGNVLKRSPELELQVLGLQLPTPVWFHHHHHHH

| He/Con 1a [%] | Binder |
| --- | --- |
| 111 | B1 |
| 109 | B2 |
| 106 | B3 |
| 111 | B4 |
| 106 | B5 |
| 109 | B6 |
| 103 | B7 |
| 108 | B8 |
| 107 | B9 |
| 101 | B10 |
| 109 | B11 |
| 109 | B12 |
| 108 | B13 |
| 106 | B14 |
| 100 | B15 |
| 109 | B16 |
| 101 | B17 |
| 111 | B18 |
| 107 | B19 |
| 110 | B20 |
| 106 | B21 |
| 105 | B22 |
| 110 | B23 |
| 105 | B24 |
| 102 | B25 |
| 109 | B26 |
| 108 | B27 |
| 107 | B28 |
| 108 | B29 |

Molecular target: T3, FcγRIIa(H)
Test: SPR, relative to GpH7-A5/GpH7-B3/GpL16-k0 =100

| He/Con 2aH [%] | Binder |
| --- | --- |
| 87.7 | B1 |
| 110 | B2 |
| 103 | B3 |
| 93.8 | B4 |
| 105 | B5 |
| 102 | B6 |
| 116 | B7 |
| 106 | B8 |
| 101 | B9 |
| 122 | B10 |
| 110 | B11 |
| 119 | B12 |
| 86.7 | B13 |
| 104 | B14 |
| 84.9 | B15 |
| 115 | B16 |
| 154 | B17 |
| 102 | B18 |
| 101 | B19 |
| 113 | B20 |
| 110 | B21 |
| 96.5 | B22 |
| 88.3 | B23 |
| 105 | B24 |
| 111 | B25 |
| 106 | B26 |
| 102 | B27 |
| 110 | B28 |
| 108 | B29 |
